Measured values taken from the Human Domainome abundance scans (Beltran et al. 2025).

B1: Retinoic acid receptor beta, residues 85 to 161; numbered along this chain, P10826 (parent)
chain: YKPCFVCQDKSSGYHYGVSACEGCKGFFRRSIQKNMIYTCHRDKNCVINKVTRNRCQYCRLQKCFEVGMSKESVRND

Variants of: B1
Assay: abundance fitness (aPCA) (normalised: wild type 0, dead -1); higher = more abundant; growth selection in yeast, the domain comes from the species named
Conditions: Homo sapiens

Abundance fitness: each site, then its substitutions
Y58: Q -0.259; D -0.131; C 0.046; L -0.545; N -0.634; V -0.679; T -0.501; H -0.111; I -0.898; E -0.214; M -0.237; W 0.107; A 0.107; P -1.13; R -0.325; G -0.134; K -0.147
C59: I -0.494; Q -0.983; Y -0.831; A -0.619; H -0.817; V -0.941; T -0.499; F -0.872; W -0.823; M -0.732; R -0.869; N -0.834; G -0.758; L -0.84; E -0.916; K -0.998; P -0.777; S -0.294
V51: A -0.115; L 0.238; C -0.249; Q 0.076; I 0.073; F 0.13; M 0.166; P -0.218; K -0.013; W 0.282; R -0.146; S 0.011; E 0.171; T 0.019; D 0.255; Y -0.003; N -0.014
C56: I -1.05; L -0.907; Y -0.567; W -0.893; T -0.668; P -0.763; H -0.581; K -0.978; M -0.768; N -0.953; A -1.16; G -0.773; D -0.623; F -0.946; R -0.928; E -0.703; S -0.749
K50: W 0.25; V 0.208; Y 0.126
Q57: D 0.353; K -0.245; S 0.144; Y 0.163; P 0.141; G 0.2; W 0.104; E 0.268; H 0.079; V -0.385; N -0.021; C 0.078; A 0.158; T -0.251
Q62: N -0.056; T -0.004; H 0.123; V 0.026; W -0.203; I 0.018; G -0.317; M -0.033; A 0.043; D -0.107; L -0.042; C -0.268; E 0.017; S 0.012; P -0.814; K 0.125
S70: F -0.111; D -0.085; E 0.039; G -0.184; A -0.047; C -0.076; I 0.262; K 0.078; H 0.022
R55: T 0.239; F -0.343; P 0.218; H 0.205; C 0.102; L 0.183; I 0.155; W 0.149; N 0.26; Y 0.077; S 0.265; E 0.277; M 0.25; D 0.244; G 0.262; A 0.18; V 0.227; K 0.198
M69: F -0.406; E -0.751; P -0.917; A -0.81; V -0.591; C -0.31; D -0.498; K -0.983; R -0.741; Y -0.588; I -0.142; N -0.725; T -0.515; G -0.813; W -0.235
L61: C -0.657; R -0.8; E -0.635; S -0.995; G -0.605; F -0.13; Q -0.336; A -0.591; W -0.605; P -0.754; Y -0.181; I -0.207; V -0.499; K -0.946; M -0.023; D -0.516; H -0.503
C64: Q -0.426; N -0.969; S -0.461; V -0.628; L -0.734; A -0.329
